Results reported in the supplement of paper PMC10567573.

B1: ZNF207 (parent)
chain: CHICHKKLYTGPGLAIHCMQVHKE

Variants of: B1
Test: protein stability index of a GFP-peptide fusion (GPS, HEK-293T) (PSI 1-6); higher = more stable
Conditions: c terminus: a fixed tail appended
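Also: lentivirally expressed fusions sorted by FACS into six bins by GFP to DsRed ratio, PSI derived from sequencing read proportions per bin multiplied by bin number.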

Protein stability index: each site, then its substitutions
G13: R 2.41; H 4.02; V 2.54; D 4.82; P 2.43; L 2.9; N 3.77; I 2.3; F 2.11; A 4.96; M 3.64; T 3.37; S 3.83; Q 4.07; Y 2.12; W 2.07; K 3.15; E 4.3; C 3.65
P12: W 3.49; H 5.06; L 3.46; D 4.51; C 3.09; V 2.05; K 3.5; G 3.09; T 3.18; R 3.88; Q 4.11; I 3.03; Y 3.73; N 4.09; E 4.48; F 2.41; M 3.24; A 3.84; S 3.86
L8: N 2.97; T 3.02; V 4.12; R 1.37; K 2.42; Y 2.33; P 3.1; S 2.57; M 4.63; H 3.14; I 3.67; E 3.96; C 3.16; Q 2.93; D 3.37; W 2.66; G 3.61; A 2.33; F 2.44
L14: F 2.9; I 3.3; H 3.69; Q 3.78; S 3.22; R 2.79; D 4.56; G 3.85; P 3.9; T 3.6; Y 2.94; C 3.34; E 4.44; W 2.85; V 3; K 3.1; M 3.45; N 4.65; A 3.96
I16: M 3.45; F 3.83; L 3.01; G 4.1; N 3.71; A 3.54; P 3.97; C 4.33; E 4.77; H 4.39; K 3.23; D 4.71
G11: D 3.98; Y 1.56; N 3.59; W 1.36; F 2.63; S 3.48; H 2.68; C 2.31; P 3.94; Q 3.37; K 3.34; V 2.32; E 4.53; I 1.58; M 2.05; L 2.63; A 2.67; T 2.48; R 3.53
T10: I 2.86; D 4.59; N 3.58; Q 3.8; K 2.65; Y 2.6; M 2.55; H 2.68; E 3.83; P 3.68; F 2.4; A 3.47; R 2.52; S 3.31; V 3.5; W 2.56; G 3.06; L 2.49; C 2.92
A15: I 2.79; H 2.99; K 3.38; D 4.37; T 3.69; Q 3.7; P 3.24; E 3.55; S 3.42; Y 3.21; G 4.44; R 3.19; W 2.27; M 3.35; V 2.35; C 4.64; F 2.91; N 3.7; L 2.66
Y9: G 3.76; Q 3.93; M 4.14; F 3.16; L 3.97; C 3.39; P 3.64; R 4.11; A 4.31; H 3.62; W 2.34; I 2.72; S 4.28; K 3.29; D 4.9; N 3.83; V 3.19; T 3.27; E 4.6
K7: Y 4.2; V 4.09; W 3.27
